Experimental data taken from patent US10144929B2, “Polypeptide inhibitors of Smad3 polypeptide activities” (Mayo Foundation for Medical Education and Research, priority 2016, dated 2018).

Experiment: Liver enzymes and inflammatory cells in blood of saline or BLM mice
Type: in vivo, C57BL/6 mice
Conditions: 1 mg/kg daily from day 14; blood at days 0, 14, 28
Protocol: (§1) FIG. 12. C57BL/6 mice received intratracheal instillation of saline or bleomycin (BLM). On day 14, all animals began daily treatment with either vehicle (methocel/saline) or 1 mg/kg of TAT-SH3-2. Blood samples were obtained at days 0, 14, and 28 from the facial vein of unanesthetized animals and assessed for effect on the indicated liver enzymes and inflammatory cells. Quantification of lymphocytes, monocytes, and neutrophils were measured using a VetScan HM5 Analyzer. Serum levels (U/L, units per liter; g/dL, grams per deciliter) of alkaline phosphatase (ALP), alanine aminotransferase (ALT), and albumin were determined using a Piccolo Xpress Chemistry analyzer. Data are presented as mean+/−SEM of n=5.
as §1, with “C57BL/6” for “FIG. 12. C57BL/6”, “analyzer.” for “analyzer. Data are presented as mean+/−SEM of n=5.”

## TAT-SH3-2: TAT-SNX9(SH3) fusion polypeptide having SNX9 amino acids 21-51 (31 mer) (TVNEGEIITITNPDVGGGWLEGRNIKGERGL; left off: small tags and cut ends)
  inflammatory cell recruitment (lymphocytes, monocytes, neutrophils): no demonstrable effect
  murine liver enzymes (ALP, ALT, albumin): no demonstrable effect
